Series [1] concerns the target T1, recombinant dimeric human G6b-B (human, UniProt O95866 18-142, limits assumed).
T1 construct: also called G6b-B dimer; dimeric G6b-B
T1 sequence (looked up): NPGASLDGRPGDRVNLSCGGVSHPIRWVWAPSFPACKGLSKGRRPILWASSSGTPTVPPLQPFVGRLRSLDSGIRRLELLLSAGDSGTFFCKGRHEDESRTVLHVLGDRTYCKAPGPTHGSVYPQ
Nature of the series: Fab as analyte over a G6b-B dimer channel (RU read-out; method not named), two stage reaction model.

The target in series [2] is T2, recombinant monomeric human G6b-B (human, UniProt O95866 18-142, limits assumed).
T2 construct: also called G6b-B monomer; monomeric G6b-B
T2 sequence (looked up): T1 sequence (looked up)
Description: Fab as analyte over a G6b-B monomer channel (RU read-out; method not named), two stage reaction model.

Series [3] addresses T3, mouse G6b-B (mouse, UniProt D7PDD4 18-140, limits assumed).
T3 construct: construct not described
T3 sequence (looked up): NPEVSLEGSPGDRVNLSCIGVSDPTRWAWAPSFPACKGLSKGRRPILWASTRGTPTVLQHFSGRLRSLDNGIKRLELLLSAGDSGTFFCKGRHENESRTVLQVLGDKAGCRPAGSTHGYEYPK
Nature of the series: plate binding assay (coated protein, HRP anti-mouse IgG, TMB, A450), FIG. 8. On the procedure:
FIG. 8—illustrates that the 17-4 antibody robustly binds to recombinant monomeric and dimeric human G6b-B, but not to mouse G6b-B in an in vitro binding assay. Wells of 96-well plate were coated with the indicated proteins overnight. Following blocking, wells were incubated with the indicated anti-G6b monoclonal antibodies (10 μg/ml) or IgG control. Antibody binding was detected with HRP-conjugated anti-mouse antibody and 3,3,5,5-tetramethylbenzidine (TMB) substrate; absorbance was measured with a plate reader at 450 nm.
Wells of 96-well Nunc MaxiSorp™ plates (Thermo Scientific) were coated overnight with 50 μl of indicated proteins, diluted in PBS at a concentration of 5 μg/ml. Plates were washed three times with Tris buffered saline (TBS) containing 0.1% Tween 20 (TBS-T) and blocked for 1.5 h at 37° C. with 2% fat free milk in TBS, 0.02% Tween 20. After one washing step, wells were incubated with the indicated anti-G6b monoclonal antibodies (10 μg/ml) or IgG control, diluted in 3% BSA in TBS-T for 1.5 h at RT. After five washing steps, wells were incubated with HRP-conjugated anti-mouse IgG antibody (Sigma) for 1 h at RT at low agitation. Plates were washed seven times and signals were developed with TMB. The reaction was stopped by addition of 2 M H₂SO₄ (50 μl/well) and absorbance at 450 nm and 570 nm (background) was measured with a Versa max plate reader (Molecular Devices).

Series [4] deals with the molecule itself. Description: X-ray crystal structure; dimer believed to result from binding of the heparin oligosaccharide DP12. The method, then: The preformed G6b-B:Fab complex at 12 mg/ml, in a buffer solution of 20 mM HEPES, 75 mM NaCl, pH 7.1 was incubated for 1 hour at 4° C. with 2 mM DP12 (Iduron Cat. No. HO12). This protein sample was then microfuged at 16,000 g, for 10 minutes at 4° C., before drops were set up using 150 nl sample and 100 nl reservoir solution. Reservoir conditions were 50 mM MES pH6.2, 10% PEG 550MME, 5% glycerol, and 50 mM CaCl₂. Crystallisation plates were incubated at 20° C. and flat plate crystals appeared within 3 days. The crystal was harvested straight out of the growth drop into liquid nitrogen. Diffraction data were collected at 100K on beamline 103 at Diamond Light Source and processed by XDS1 and Aimless2 via AutoPROC3. The crystal had the space group C2 with the cell dimensions of a=183.80, b=72.34, c=131.04, alpha=90.0°, beta=124.52°, gamma=90.0°, and gave a 97% complete dataset to 3.1 Å.

Experimental findings from patent US20220112285A1 (UNIVERSITY OF BIRMINGHAM, published 2022) are described below.

For orientation: Kd means the equilibrium constant for the complex coming apart.

B1: His-tagged recombinant anti-G6b-B Fab fragment of antibody 17-4 (Fab, V domains shown)
VH: EVQLQQSGAELVKPGASVKLSCTASGFNIKETYIHWVKQRPEQGLEWIGRIDPADVYGRYDPKFQGKATITADTSSNSAYLQVSSLTSEDTAVYYCARSYGSSYGIDYWGQGTSVTVSS
VL: DIQMTQTTSSLSASLGDRVTISCRASQDISNYLNWYQQKPDGTVKLLIYYTSTLHSGVPSRFSGSGSGTDYSLTISNLEQEDVATYFCQQGYTLPWTFGGGTKLEIKR
notes: also called 17-4 Fab; 17-4 Fabs
B1: the figures for the dissociation constant (Kd) in series [1] and in series [2] were 0.262 nM and 0.126 nM, respectively.

B2: anti-G6b mouse monoclonal antibody 17-4 (antibody, mouse IgG1, kappa, V domains shown)
VH: B1 VH
VL: B1 VL
notes: The entries may include leader peptides, since VH CDR2 residues are numbered 69 and 71; no cleavage site is stated; also called exemplary antibody 17-4; mAb 17-4
B2: in series [3], the binding result is given as “no binding (tested: 10 µg/ml)”.

B3: G6b-B ECD (18-133, [N32D, S67A, S68A, S69A, T71A]) (receptor, human, UniProt O95866 18-133, looked up)
chain: NPGASLDGRPGDRVDLSCGGVSHPIRWVWAPSFPACKGLSKGRRPILWAAAAGAPTVPPLQPFVGRLRSLDSGIRRLELLLSAGDSGTFFCKGRHEDESRTVLHVLGDRTYCKAPG
notes: Expressed in HEK293 6E cells and used for the crystal structure with the 17-4 Fab and the heparin oligosaccharide DP12; also called G6b ECD; G6b-ECD
Regarding B3, the binding result in series [4] is “binds”.
